In patent US6010897, “Expression of signal-peptide-free staphylokinases” (dated 2000):

B1: N10ΔSAK42D (SAK42D shortened by 10 amino acids at the N-terminus) (other)
chain: KGDDASYFEPTGPYLMVNVTGVDGKRNELLSPRYVEFPIKPGTTLTKEKIEYYVEWALDATAYKEFRVVELDPSAKIEVTYYDKNKKKEETKSFPITEKGFVVPDLSEHIKNPGFNLITKVVIEKK
B2: N14ΔSAK42D (SAK42D shortened by 14 amino acids at the N-terminus) (other)
chain: ASYFEPTGPYLMVNVTGVDGKRNELLSPRYVEFPIKPGTTLTKEKIEYYVEWALDATAYKEFRVVELDPSAKIEVTYYDKNKKKEETKSFPITEKGFVVPDLSEHIKNPGFNLITKVVIEKK
B3: SAK42D (mature native staphylokinase of S. aureus phage 42D, expressed free of signal peptide in E. coli TG1(pMEX602sak)) (other)
chain: SSSFDKGKYKKGDDASYFEPTGPYLMVNVTGVDGKRNELLSPRYVEFPIKPGTTLTKEKIEYYVEWALDATAYKEFRVVELDPSAKIEVTYYDKNKKKEETKSFPITEKGFVVPDLSEHIKNPGFNLITKVVIEKK

What follows are molecules tested against plasminogen (species not stated) (assay: not given).

Molecule | specific activity in µmol plasmin/(µmol SAK × min) (µmol plasmin/(µmol SAK × min))
N10ΔSAK42D (SAK42D shortened by 10 amino acids at the N-terminus) | 22.7
N14ΔSAK42D (SAK42D shortened by 14 amino acids at the N-terminus) | 8.1
SAK42D (mature native staphylokinase of S. aureus phage 42D, expressed free of signal peptide in E. coli TG1(pMEX602sak)) (from UniProt P15240) | 16.2
SAKM26C (artificial allelic SAK form) | 21.1
SAKM26L (artificial allelic SAK form) | 36.6

These molecules were tested against human plasminogen, isolated from human plasma and immobilized on Protein-Pak epoxy-activated carrier (human, UniProt P00747) (assay: analytical affinity chromatography on immobilized human plasminogen, 16° C.).

Molecule | Kd [nM]
B1 | 2210
B2 | 4400
B3 | 1480
